Measured values taken from article PMC9482650, “Quantitative fragmentomics allow affinity mapping of interactomes” (Nature Communications, 2022).

T1: NHERF3_2, Q5T2W1
T1 sequence (Q5T2W1 129-225, limits assumed, looked up): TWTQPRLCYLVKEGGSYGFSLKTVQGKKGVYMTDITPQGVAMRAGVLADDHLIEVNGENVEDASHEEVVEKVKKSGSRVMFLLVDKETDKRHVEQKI

T2: PDZD7_2, Q9H5P4
T2 sequence (Q9H5P4 205-303, limits assumed, looked up): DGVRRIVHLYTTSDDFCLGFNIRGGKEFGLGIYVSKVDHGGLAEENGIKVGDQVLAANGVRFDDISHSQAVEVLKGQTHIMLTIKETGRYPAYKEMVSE

T3: PDZD11, Q5EBL8
T3 sequence (Q5EBL8 42-139, limits assumed, looked up): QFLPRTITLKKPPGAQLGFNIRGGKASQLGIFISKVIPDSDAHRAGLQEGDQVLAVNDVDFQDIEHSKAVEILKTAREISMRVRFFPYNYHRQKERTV

T4: TJP3_2, O95049
T4 sequence (O95049 190-282, limits assumed, looked up): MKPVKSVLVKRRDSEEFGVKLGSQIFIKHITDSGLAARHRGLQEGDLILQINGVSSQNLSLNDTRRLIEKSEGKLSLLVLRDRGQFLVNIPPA

T5: PDZD7_1, Q9H5P4
T5 sequence (Q9H5P4 81-178, limits assumed, looked up): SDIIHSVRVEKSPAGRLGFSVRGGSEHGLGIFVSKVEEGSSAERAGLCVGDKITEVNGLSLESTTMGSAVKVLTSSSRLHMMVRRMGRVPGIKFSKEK

T6: SIPA1L3, O60292
T6 sequence (O60292 961-1052, limits assumed, looked up): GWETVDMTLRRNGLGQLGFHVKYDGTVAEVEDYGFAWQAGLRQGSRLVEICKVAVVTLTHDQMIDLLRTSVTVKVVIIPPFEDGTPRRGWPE

T7: APBA3_2, O96018
T7 sequence (O96018 480-570, limits assumed, looked up): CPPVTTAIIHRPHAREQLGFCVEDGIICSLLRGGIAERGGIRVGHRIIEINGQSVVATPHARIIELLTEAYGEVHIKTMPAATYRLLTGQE

T8: PARD6G, Q9BYG4
T8 sequence (Q9BYG4 153-261, limits assumed, looked up): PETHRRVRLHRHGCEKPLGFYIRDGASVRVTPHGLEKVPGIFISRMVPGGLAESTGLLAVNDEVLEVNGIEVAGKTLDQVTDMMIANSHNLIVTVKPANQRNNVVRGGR

T9: PDZD2_5, O15018
T9 sequence (O15018 2617-2716, limits assumed, looked up): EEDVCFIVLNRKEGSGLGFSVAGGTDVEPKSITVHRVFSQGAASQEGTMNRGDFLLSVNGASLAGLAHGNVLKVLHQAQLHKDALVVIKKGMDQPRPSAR

T10: SHROOM2, Q13796
T10 sequence (Q13796 21-118, limits assumed, looked up): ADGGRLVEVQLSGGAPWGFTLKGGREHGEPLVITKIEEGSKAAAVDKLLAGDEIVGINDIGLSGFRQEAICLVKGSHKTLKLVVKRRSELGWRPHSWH

T11: PDZD2_1, O15018
T11 sequence (O15018 80-192, limits assumed, looked up): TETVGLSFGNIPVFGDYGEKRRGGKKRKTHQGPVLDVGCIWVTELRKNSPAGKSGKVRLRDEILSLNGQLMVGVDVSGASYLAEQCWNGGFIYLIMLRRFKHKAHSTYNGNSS

T12: PREX2_2, Q70Z35
T12 sequence (Q70Z35 672-764, limits assumed, looked up): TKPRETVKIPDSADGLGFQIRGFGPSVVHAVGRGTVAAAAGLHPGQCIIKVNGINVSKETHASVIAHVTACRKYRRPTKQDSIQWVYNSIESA


What was measured:
Assay in all cases: holdup assay
Design in all cases: key: below the threshold = too weak to quantify, mostly under pKd 3.1 to 4
Details in all cases: plain residues with an end cap or a label only (N-terminal biotin on a linker: ttds)
PARD3B_2, Q8TEW8 = biological target: PARD3B_2, Q8TEW8
NHERF3_2, Q5T2W1 = biological target: T1, NHERF3_2, Q5T2W1
AHNAK2, Q8IVF2 = biological target: AHNAK2, Q8IVF2
PDZD7_2, Q9H5P4 = biological target: T2, PDZD7_2, Q9H5P4
PDZD11, Q5EBL8 = biological target: T3, PDZD11, Q5EBL8
Inadl_7, Q8NI35 = biological target: Inadl_7, Q8NI35
TJP3_2, O95049 = biological target: T4, TJP3_2, O95049
PTPN13_2, Q12923 = biological target: PTPN13_2, Q12923
PDZD7_1, Q9H5P4 = biological target: T5, PDZD7_1, Q9H5P4
MAGI3_6, Q5TCQ9 = biological target: MAGI3_6, Q5TCQ9
SIPA1L3, O60292 = biological target: T6, SIPA1L3, O60292
APBA3_2, O96018 = biological target: T7, APBA3_2, O96018
MAGI1_5, Q96QZ7 = biological target: MAGI1_5, Q96QZ7
PARD6G, Q9BYG4 = biological target: T8, PARD6G, Q9BYG4
DLG2_1, Q15700 = biological target: DLG2_1, Q15700
NHERF2_1, Q15599 = biological target: NHERF2_1, Q15599
SCRIB_4, Q14160 = biological target: SCRIB_4, Q14160
CARD14, Q9BXL6 = biological target: CARD14, Q9BXL6
PARD3_1, Q8TEW0 = biological target: PARD3_1, Q8TEW0
PDZD2_5, O15018 = biological target: T9, PDZD2_5, O15018
SHROOM2, Q13796 = biological target: T10, SHROOM2, Q13796
PDZRN4_2, Q6ZMN7 = biological target: PDZRN4_2, Q6ZMN7
PDZD2_1, O15018 = biological target: T11, PDZD2_1, O15018
LMO7, Q8WWI1 = biological target: LMO7, Q8WWI1
MAGI3_3, Q5TCQ9 = biological target: MAGI3_3, Q5TCQ9
PREX2_2, Q70Z35 = biological target: T12, PREX2_2, Q70Z35

PDZRN4_2, Q6ZMN7, sequence (Q6ZMN7 389-498): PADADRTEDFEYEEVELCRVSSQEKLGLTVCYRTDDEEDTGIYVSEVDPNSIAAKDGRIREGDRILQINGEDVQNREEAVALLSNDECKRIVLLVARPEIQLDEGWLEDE
PTPN13_2, Q12923, sequence (Q12923 1363-1462): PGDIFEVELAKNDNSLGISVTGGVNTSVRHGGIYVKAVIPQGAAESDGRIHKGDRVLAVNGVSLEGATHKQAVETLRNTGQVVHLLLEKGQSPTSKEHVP
PARD3_1, Q8TEW0, sequence (Q8TEW0 264-372): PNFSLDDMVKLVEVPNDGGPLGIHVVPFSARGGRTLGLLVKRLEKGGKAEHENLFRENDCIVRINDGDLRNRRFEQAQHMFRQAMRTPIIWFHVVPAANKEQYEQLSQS
MAGI3_3, Q5TCQ9, sequence (Q5TCQ9 572-655): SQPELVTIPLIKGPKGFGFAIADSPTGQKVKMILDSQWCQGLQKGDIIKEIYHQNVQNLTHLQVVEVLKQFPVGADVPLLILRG
Inadl_7, Q8NI35, sequence (Q8NI35 1219-1332): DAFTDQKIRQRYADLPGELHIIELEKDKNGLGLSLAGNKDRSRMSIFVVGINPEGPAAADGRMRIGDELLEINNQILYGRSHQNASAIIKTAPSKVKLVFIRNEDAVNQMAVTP
PARD3B_2, Q8TEW8, sequence (Q8TEW8 376-471): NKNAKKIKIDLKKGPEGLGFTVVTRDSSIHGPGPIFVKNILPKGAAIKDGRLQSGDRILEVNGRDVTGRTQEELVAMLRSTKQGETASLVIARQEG
AHNAK2, Q8IVF2, sequence (Q8IVF2 108-193): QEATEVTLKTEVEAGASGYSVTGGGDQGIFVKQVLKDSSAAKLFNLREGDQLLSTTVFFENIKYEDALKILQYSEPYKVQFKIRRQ
CARD14, Q9BXL6, sequence (Q9BXL6 558-663): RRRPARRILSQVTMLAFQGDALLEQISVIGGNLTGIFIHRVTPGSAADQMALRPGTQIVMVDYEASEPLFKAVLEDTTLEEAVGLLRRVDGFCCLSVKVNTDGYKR
MAGI1_5, Q96QZ7, sequence (Q96QZ7 986-1098): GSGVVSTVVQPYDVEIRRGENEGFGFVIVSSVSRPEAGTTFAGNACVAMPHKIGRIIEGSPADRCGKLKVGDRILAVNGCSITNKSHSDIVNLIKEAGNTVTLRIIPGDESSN
LMO7, Q8WWI1, sequence (Q8WWI1 1037-1138): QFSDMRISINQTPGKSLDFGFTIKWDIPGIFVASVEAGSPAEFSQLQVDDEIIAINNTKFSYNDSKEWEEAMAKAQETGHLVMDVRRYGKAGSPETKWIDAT
NHERF2_1, Q15599, sequence (Q15599 9-91): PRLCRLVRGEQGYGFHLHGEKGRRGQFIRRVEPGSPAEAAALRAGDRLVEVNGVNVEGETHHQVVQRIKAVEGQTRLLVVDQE
SCRIB_4, Q14160, sequence (Q14160 1095-1204): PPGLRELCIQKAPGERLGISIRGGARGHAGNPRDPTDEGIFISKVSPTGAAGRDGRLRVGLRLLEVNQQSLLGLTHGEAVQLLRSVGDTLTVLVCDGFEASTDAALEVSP
MAGI3_6, Q5TCQ9, sequence (Q5TCQ9 1014-1103): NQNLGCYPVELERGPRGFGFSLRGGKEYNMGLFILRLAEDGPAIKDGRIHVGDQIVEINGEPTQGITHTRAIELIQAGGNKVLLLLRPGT

pKd (PARD3B_2, Q8TEW8)	pKd (NHERF3_2, Q5T2W1)	pKd (AHNAK2, Q8IVF2)	pKd (PDZD7_2, Q9H5P4)	pKd (PDZD11, Q5EBL8)	pKd (Inadl_7, Q8NI35)	pKd (TJP3_2, O95049)	pKd (PTPN13_2, Q12923)	pKd (PDZD7_1, Q9H5P4)	pKd (MAGI3_6, Q5TCQ9)	pKd (APBA3_2, O96018)	pKd (MAGI1_5, Q96QZ7)	pKd (PARD6G, Q9BYG4)	pKd (DLG2_1, Q15700)	pKd (NHERF2_1, Q15599)	pKd (SCRIB_4, Q14160)	pKd (CARD14, Q9BXL6)	pKd (PARD3_1, Q8TEW0)	pKd (PDZD2_5, O15018)	pKd (SHROOM2, Q13796)	Binder	further results
below the threshold	below the threshold	below the threshold	below the threshold	below the threshold	below the threshold	below the threshold	below the threshold	below the threshold	below the threshold	below the threshold	below the threshold	below the threshold	3.83	below the threshold	below the threshold	below the threshold	below the threshold	below the threshold	3.61	RRVRKLPSTTL [RPS6KA1, Q15418]	pKd (SIPA1L3, O60292): below the threshold; pKd (PDZRN4_2, Q6ZMN7): below the threshold; pKd (PDZD2_1, O15018): below the threshold; pKd (LMO7, Q8WWI1): below the threshold; pKd (MAGI3_3, Q5TCQ9): below the threshold
below the threshold	below the threshold	below the threshold	below the threshold	below the threshold	below the threshold	below the threshold	below the threshold	below the threshold	4.34	below the threshold	below the threshold	below the threshold	below the threshold	below the threshold	below the threshold	below the threshold	below the threshold	below the threshold	4.22	CLDTSRETDL [KCNA5, P22460]	pKd (SIPA1L3, O60292): below the threshold; pKd (PREX2_2, Q70Z35): below the threshold; pKd (PDZRN4_2, Q6ZMN7): below the threshold; pKd (PDZD2_1, O15018): below the threshold; pKd (LMO7, Q8WWI1): below the threshold; pKd (MAGI3_3, Q5TCQ9): below the threshold
below the threshold	below the threshold	below the threshold	below the threshold	below the threshold	3.65	below the threshold	3.81	below the threshold	below the threshold	below the threshold	4.53	below the threshold	below the threshold	below the threshold	below the threshold	below the threshold	below the threshold	below the threshold	below the threshold	DEDQHTQITKV [PTEN, P60484]	pKd (PREX2_2, Q70Z35): below the threshold; pKd (PDZRN4_2, Q6ZMN7): below the threshold; pKd (PDZD2_1, O15018): below the threshold; pKd (LMO7, Q8WWI1): below the threshold; pKd (MAGI3_3, Q5TCQ9): below the threshold
3.9	below the threshold	below the threshold	below the threshold	below the threshold	below the threshold	3.95	below the threshold	below the threshold	below the threshold	3.95	4.17	3.82	below the threshold	3.84	below the threshold	below the threshold	below the threshold	3.8	3.83	TGDTLEKFVEGL [CBP, Q92793]	pKd (PREX2_2, Q70Z35): below the threshold; pKd (PDZRN4_2, Q6ZMN7): below the threshold; pKd (PDZD2_1, O15018): below the threshold; pKd (MAGI3_3, Q5TCQ9): below the threshold
below the threshold	below the threshold	below the threshold	below the threshold	below the threshold	below the threshold	below the threshold	below the threshold	below the threshold	below the threshold	below the threshold	below the threshold	below the threshold	below the threshold	below the threshold	below the threshold	below the threshold	below the threshold	below the threshold	below the threshold	QPGTPTRTAV [MAP2K2, P36507]	pKd (SIPA1L3, O60292): below the threshold; pKd (PREX2_2, Q70Z35): below the threshold; pKd (PDZRN4_2, Q6ZMN7): below the threshold; pKd (PDZD2_1, O15018): below the threshold; pKd (LMO7, Q8WWI1): below the threshold; pKd (MAGI3_3, Q5TCQ9): below the threshold
